Measured values published in patent US20170291955A1 (AstraZeneca / MedImmune, published 2017).
Positions count from the first letter of the chain named. Blank lines part the entries; values can stand above or below the binder they belong to.

Experiments:
[1] = target: T1, human HER2 on cells (human, UniProt P04626 23-1255); assay: FACS competition on BT-474 cells; competitor: fluorescently labelled 39S at 2 µg/mL; unlabelled antibody titrated
T1 construct: whole, on cells; also called HER2 on BT-474 cells; HER2 on T47D cells
Experimental: BT-474 cells were harvested, resuspended in FACS buffer, and 2.5×10⁵ cells/well were added to a 96-well U-bottom plate. […] After 1 hour of staining on ice, cells were washed 3 times with ice-cold FACS buffer and then fixed with 2% PFA. Cells were analyzed by a BD LSR II machine with BD FACSDiva™ software. Data were analyzed with FlowJo software and presented as mean MFI±SEM (n=3).

[2] = target: T2, recombinant human HER2 extracellular domain protein (human, UniProt P04626 23-652); assay: BIAcore (SPR), format not stated
[3] = target: T2, recombinant human HER2 extracellular …; assay: BIAcore KD of 39S against the reported KD of 1.39.1
[4] = target: T3, human HER3 recombinant extracellular domain protein (human, UniProt P21860 20-643); assay: capture ELISA on coated recombinant extracellular domain protein
T3 construct: extracellular domain
Experimental: (§1) Antibody to be tested was prepared by diluting in a stepwise 1:3 serial dilution ranging from 50 nM down to 0.28 pM and then added to the wells in duplicate. After one hour of incubation, plates were washed, and goat anti-human IgG Fab HRP-conjugated secondary antibody was added to each well and the plates were incubated for 1 hour. The plates were washed and TMB substrate was added and incubated for 5-20 min to allow color development. The stop solution was added to the wells at the end of reaction and the plates were read at 450 nm. Binding signal (absorbance at 450 nm) was plotted against antibody concentration using Prism software.

[5] = target: T4, human HER4 recombinant extracellular domain protein (human, UniProt Q15303 26-651); assay: as above
T4 construct: extracellular domain
T4 sequence (looked up): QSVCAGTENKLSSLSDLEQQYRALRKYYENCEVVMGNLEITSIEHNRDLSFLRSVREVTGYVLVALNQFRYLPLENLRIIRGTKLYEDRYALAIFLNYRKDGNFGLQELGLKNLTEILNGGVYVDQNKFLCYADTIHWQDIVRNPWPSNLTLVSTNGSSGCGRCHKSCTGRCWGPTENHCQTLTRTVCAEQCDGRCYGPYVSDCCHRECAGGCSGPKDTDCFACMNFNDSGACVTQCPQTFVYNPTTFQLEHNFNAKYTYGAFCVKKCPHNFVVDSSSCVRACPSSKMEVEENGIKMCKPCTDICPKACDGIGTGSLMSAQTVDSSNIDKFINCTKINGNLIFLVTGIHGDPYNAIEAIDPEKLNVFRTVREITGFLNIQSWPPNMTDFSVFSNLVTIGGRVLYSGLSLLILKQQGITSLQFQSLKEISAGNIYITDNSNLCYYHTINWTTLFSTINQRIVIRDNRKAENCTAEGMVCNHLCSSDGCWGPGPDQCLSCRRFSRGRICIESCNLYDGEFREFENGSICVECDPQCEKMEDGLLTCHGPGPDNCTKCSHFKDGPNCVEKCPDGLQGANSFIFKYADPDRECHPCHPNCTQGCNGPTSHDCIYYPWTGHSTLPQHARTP
Experimental: as §1

[6] = target: T5, human EGFR recombinant extracellular domain protein (human, UniProt P00533 25-645); assay: as above
T5 construct: extracellular domain
Experimental: as §1

[7] = target: T6, KO_250-261 (human; mouse, UniProt P70424 273-284); assay: SPR (ProteOn XPR36), variant captured by anti-Her2 polyclonal antibody, 39S injected; apparent affinity
T6 construct: domain: counterpart of human amino acids 250-261
Experimental: (§2) The chimeric variant nomenclature denotes types of variants (KO/KI) and the number of domains swapped. […] The expression of the variants was monitored by anti-His polyclonal antibody using ProteOn™.
(§3) Standard amine coupling was used to immobilize an anti-human or mouse Her2 polyclonal antibody (R&D System) in 10 mM sodium acetate (pH 5.0) to the surface of a GLC biosensor chip at ˜5000 resonance units (RU) for each channel. The chimeric proteins in cell culture supernatant were injected and captured by anti-human or mouse polyclonal antibodies onto the GLC surface with a ˜200 RU response. […] The surface was regenerated twice by injecting glycine buffer (10 mM, pH 1.5) at 100 μL/min for 30 sec. All sensorgram data were processed with the ProteOn™ Manager 3.0.1 software.

[8] = target: T7, KO_159-162 (human; mouse, UniProt P70424 182-185); assay: as above
T7 construct: domain: counterpart of human amino acids 159-162
Experimental: as §2, §3

[9] = target: T8, KO_276-285 (human; mouse, UniProt P70424 299-308); assay: as above
T8 construct: domain: counterpart of human amino acids 276-285
Experimental: as §2, §3

[10] = target: T9, KO_295-296 (human; mouse, UniProt P70424 318-319); assay: as above
T9 construct: domain: counterpart of human amino acids 295-296
Experimental: as §2, §3

[11] = target: KO_171-187 (human; mouse, UniProt P70424 194-210); assay: as above
Experimental: as §2, §3

[12] = target: Human Her2 (control of Table 4) (human, UniProt P04626 23-652); assay: SPR (ProteOn XPR36), human Her2 captured by anti-Her2 polyclonal antibody, 39S injected; apparent affinity
Experimental: as §2, §3

[13] = target: T10, KO_192-208 (human; mouse, UniProt P70424 215-231); assay: SPR (ProteOn XPR36), variant captured by anti-Her2 polyclonal antibody, 39S injected
T10 construct: domain: counterpart of human amino acids 192-208
Experimental: as §2, §3

[14] = target: T11, KO_146-208 (human; mouse, UniProt P70424 169-231); assay: as above
T11 construct: domain: counterpart of human amino acids 146-208
Experimental: as §2, §3

[15] = target: T12, mouse Her2 recombinant extracellular domain protein (mouse, UniProt P70424 23-653); assay: capture ELISA on coated recombinant extracellular domain protein
T12 construct: extracellular domain
Experimental: as §1

IC50 (read off the curve) [1]: ~3000 ng/mL | Kd [2]: ~1 nM | fold increase in binding affinity over the parental antibody (1.39.1) [3]: 2 fold | Kd [7]: 0.187 nM | Kd [8]: 0.101 nM | Kd [9]: 0.106 nM | Kd [10]: 0.0847 nM | Kd [11]: 0.038 nM | Kd [12]: 0.084 nM | binding result [13]: no binding | binding result [14]: no binding
B1: 39S antibody (antibody, V domains shown)
VH: EVQLVESGGGLVKPGGSLRLSCAASGFTFSSYSMSWVRQAPGKGLEWVSSISSSSSYIYYADSVKGRFTISRDNAKNSLYLQMNSLRAEDTAVYYCARGGDAYNYYYFDYWGQGTLVTVSS
VL: DIVMTQTPLSLSVTPGQPASISCKSSQSVFFRSNNKNILAWYLQKPGQPPQLLIYWASSRESGVPDRFSGSGSGTDFTLKISRVEAEDVGVYYCQQYFGSPFTFGPGTKVDIK
notes: also called lead optimized 39S antibody (LO); anti-HER2 mAb 39S
binding result [4]: no binding (tested: 50 nM (highest concentration tested)) | binding result [5]: no binding (tested: 50 nM (highest concentration tested)) | binding result [6]: no binding (tested: 50 nM (highest concentration tested))

IC50 (read off the curve) [1]: ~5000 ng/mL | binding result [15]: no binding | binding result [4]: no binding | binding result [5]: no binding | binding result [6]: no binding
B2: AZ1.39.1 (antibody, V domains shown)
VH: B1 VH with S35N, A102G
VL: DIVMTQSPDSLAVSLGERATITCKSSQSVFFRSNNKNCLAWYQQRPGQPPNLLIYWASSRESGVPDRFSGSGSGTDFALTISSLQTEDVAVYYCQQYFGSPFTFGPGTKVDIK
